The record followed here is paper PMC3316577.

In experiment [1] the target is CBFβ140-His (residues 1-140 of CBFβ with six histidine residues at the N-terminus) (human) (UniProt Q13951). Kind of experiment: SEC. A general note: In gel filtration, larger molecules generally elute earlier.
The target in experiment [2] is His-tagged CBFβ187 (mouse CBFβ, residues 1-187) (mouse) (UniProt Q08024). In words: SEC.
Experiment [3] has as its target CBFβ140-His (residues 1-140 of CBFβ with six histidine residues at the N-terminus) (human) (UniProt Q13951). Kind of experiment: SEC; Vif-CBFβ complexes co-expressed and purified by nickel affinity, Superdex 200 10/300 GL, 20 mM Tris-HCl pH 8.0, 150 mM NaCl, 10% glycerol; peak fractions by SDS-PAGE and Coomassie staining.

Chain of UniProt Q13951 (Q13951 1-140): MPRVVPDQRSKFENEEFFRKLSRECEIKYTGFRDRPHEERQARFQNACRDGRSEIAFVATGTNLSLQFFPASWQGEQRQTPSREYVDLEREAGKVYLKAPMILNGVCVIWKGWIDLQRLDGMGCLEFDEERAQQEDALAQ
Chain of UniProt Q08024 (Q08024 whole entry, the tested form may be a part): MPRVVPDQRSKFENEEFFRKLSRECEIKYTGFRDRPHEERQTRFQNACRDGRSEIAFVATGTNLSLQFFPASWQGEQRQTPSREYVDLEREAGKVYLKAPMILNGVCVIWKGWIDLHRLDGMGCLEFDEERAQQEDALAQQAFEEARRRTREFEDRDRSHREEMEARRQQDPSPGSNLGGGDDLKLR

The term stoichiometry N denotes a count of units in the complex or per binding partner. In the case of “Elongin B / Elongin C (residues 17 to 112) (from UniProt Q15370 1-118; Q15369 17-112) (complex)”, the stoichiometry N in experiment [1] and in experiment [2] was 1 in each case.
“full-length HIV-1 Vif (residues 1-192) (from UniProt P12504) (natural protein)”: the stoichiometry N in experiment [1], in experiment [2] and in experiment [3] was 1 throughout.
The substance “truncated HIV-1 Vif140 (residues 1-140) (from UniProt P12504 1-140) (domain or fragment)” came in with a stoichiometry N in experiment [3] of 1.
The same measure, in the same setting: to “truncated HIV-1 Vif176 (residues 1-176) (from UniProt P12504 1-176) (domain or fragment)” belongs 1.
